The text below walks through data of article PMC10397247.

For assay [1], the target named is T1, 4H2438-bN.
T1 chain: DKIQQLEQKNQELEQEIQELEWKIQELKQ
Nature of the assay: two-hybrid library CCNG1.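 Further: natural log of median RNA to DNA barcode read ratio; higher means stronger binding.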

For assay [2], the target named is T2, 4H3057-bN.
T2 chain: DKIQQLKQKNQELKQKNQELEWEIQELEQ
Nature of the assay: two-hybrid library CCNG1.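 Further: natural log of median RNA to DNA barcode read ratio; higher means stronger binding.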

In assay [3] the target is T3, 4H2915-bN.
T3 chain: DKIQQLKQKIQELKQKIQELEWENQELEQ
Put plainly: two-hybrid library CCNG1.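 Further: natural log of median RNA to DNA barcode read ratio; higher means stronger binding.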

In assay [4] the target is T4, 4H2223-bN.
T4 chain: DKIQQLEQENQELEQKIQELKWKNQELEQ
Nature of the assay: two-hybrid library CCNG1.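 Further: natural log of median RNA to DNA barcode read ratio; higher means stronger binding.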

Assay [5] deals with T5, 4H3277-bN.
T5 chain: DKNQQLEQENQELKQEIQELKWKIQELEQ
Nature of the assay: two-hybrid library CCNG1.

For assay [6], the target named is T6, 4H40-bN.
T6 chain: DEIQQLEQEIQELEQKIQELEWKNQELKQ
Nature of the assay: two-hybrid library CCNG1.

For assay [7], the target named is T7, 4H741-bN.
T7 chain: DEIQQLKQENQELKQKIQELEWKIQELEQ
Nature of the assay: two-hybrid library CCNG1.

Assay [8] has as its target T8, 4H319-bN.
T8 chain: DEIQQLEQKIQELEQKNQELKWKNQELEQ
Put plainly: two-hybrid library CCNG1.

Assay [9] deals with T9, 4H2692-bN.
T9 chain: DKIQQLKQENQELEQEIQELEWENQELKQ
Put plainly: two-hybrid library CCNG1.

The target in assay [10] is T10, 4H477-bN.
T10 chain: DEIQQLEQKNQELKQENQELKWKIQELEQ
Put plainly: two-hybrid library CCNG1.

Assay [11] deals with T11, 4H2588-bN.
T11 chain: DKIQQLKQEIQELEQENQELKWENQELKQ
Put plainly: two-hybrid library CCNG1.

For assay [12], the target named is T12, 4H2503-bN.
T12 chain: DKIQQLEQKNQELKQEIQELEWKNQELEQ
Nature of the assay: two-hybrid library CCNG1.

Assay [13] deals with T13, 4H2839-bN.
T13 chain: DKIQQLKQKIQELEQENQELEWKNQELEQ
Put plainly: two-hybrid library CCNG1.

Assay [14] concerns the target T14, 4H3381-bH.
T14 chain: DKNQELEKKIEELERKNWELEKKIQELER
Nature of the assay: two-hybrid library CCNG1.

Assay [15] has as its target T15, 4H492-bN.
T15 chain: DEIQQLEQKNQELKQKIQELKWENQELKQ
Nature of the assay: two-hybrid library CCNG1.

Assay [16] has as its target T16, 4H2473-bN.
T16 chain: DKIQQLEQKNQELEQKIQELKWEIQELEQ
Nature of the assay: two-hybrid library CCNG1.

For assay [17], the target named is T17, 4H2717-bN.
T17 chain: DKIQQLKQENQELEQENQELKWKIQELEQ
Put plainly: two-hybrid library CCNG1.

Assay [18] concerns the target T18, P7A.
T18 chain: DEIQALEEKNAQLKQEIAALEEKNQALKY
Put plainly: two-hybrid library CCNG1.

For assay [19], the target named is T19, P3A.
T19 chain: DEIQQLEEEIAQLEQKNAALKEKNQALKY
Nature of the assay: two-hybrid library CCNG1.

Assay [20] addresses T20, P2A.
T20 chain: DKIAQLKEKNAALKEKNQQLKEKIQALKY
Nature of the assay: two-hybrid library CCNG1.

The target in assay [21] is T21, P9A.
T21 chain: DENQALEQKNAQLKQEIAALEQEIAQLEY
Put plainly: two-hybrid library CCNG1.

Assay [22] has as its target T22, P8A.
T22 chain: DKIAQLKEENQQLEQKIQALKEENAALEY
Put plainly: two-hybrid library CCNG1.

The target of assay [23] is T23, P4A.
T23 chain: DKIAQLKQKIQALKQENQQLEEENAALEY
Nature of the assay: two-hybrid library CCNG1.

For assay [24], the target named is T24, P6A.
T24 chain: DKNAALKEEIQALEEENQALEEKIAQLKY
Nature of the assay: two-hybrid library CCNG1.

The target in assay [25] is T25, P5A.
T25 chain: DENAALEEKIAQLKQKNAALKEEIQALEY
Nature of the assay: two-hybrid library CCNG1.

For assay [26], the target named is T26, 4H3102-AA.
T26 chain: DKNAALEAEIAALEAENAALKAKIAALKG
Put plainly: two-hybrid library CCmax. The settings on record: mean of both orientations.

The target in assay [27] is T27, 4H3920-AA.
T27 chain: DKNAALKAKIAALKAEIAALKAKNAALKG
Nature of the assay: two-hybrid library CCmax. The settings on record: mean of both orientations.

Assay [28] addresses T28, 4H146-AA.
T28 chain: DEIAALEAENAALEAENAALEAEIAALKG
Put plainly: two-hybrid library CCmax. Conditions: mean of both orientations.

The target of assay [29] is T29, 4H3121-AA.
T29 chain: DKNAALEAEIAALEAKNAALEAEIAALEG
Put plainly: two-hybrid library CCmax. Conditions: mean of both orientations.

The target in assay [30] is T30, 4H2283-AA.
T30 chain: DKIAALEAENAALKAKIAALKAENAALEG
Put plainly: two-hybrid library CCmax. Conditions: mean of both orientations.

The target of assay [31] is T31, 4H3939-AA.
T31 chain: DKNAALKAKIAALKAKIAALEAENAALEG
Nature of the assay: two-hybrid library CCmax. Conditions: mean of both orientations.

Assay [32] addresses T32, 4H2742-AA.
T32 chain: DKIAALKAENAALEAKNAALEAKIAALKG
Nature of the assay: two-hybrid library CCmax. Conditions: mean of both orientations.

Assay [33] deals with T33, 4H1391-AA.
T33 chain: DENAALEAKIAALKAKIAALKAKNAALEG
Put plainly: two-hybrid library CCmax.

Assay [34] addresses T34, 4H675-AA.
T34 chain: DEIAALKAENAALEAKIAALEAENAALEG
Put plainly: two-hybrid library CCmax. The settings on record: mean of both orientations.

For assay [35], the target named is T35, 4H2713-AA.
T35 chain: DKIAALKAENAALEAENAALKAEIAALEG
Nature of the assay: two-hybrid library CCmax. Conditions: mean of both orientations.

The target of assay [36] is T36, 4H3628-AA.
T36 chain: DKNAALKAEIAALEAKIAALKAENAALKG
Put plainly: two-hybrid library CCmax. The settings on record: mean of both orientations.

For assay [37], the target named is T37, 4H3709-AA.
T37 chain: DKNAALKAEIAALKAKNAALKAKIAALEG
Put plainly: two-hybrid library CCmax. The settings on record: mean of both orientations.

Assay [38] concerns the target T38, 4H1809-AA.
T38 chain: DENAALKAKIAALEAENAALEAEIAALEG
Nature of the assay: two-hybrid library CCmax. Conditions: mean of both orientations.

Assay [39] concerns the target T39, 4H1348-AA.
T39 chain: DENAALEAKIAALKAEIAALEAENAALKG
Nature of the assay: two-hybrid library CCmax. The settings on record: mean of both orientations.

For assay [40], the target named is T40, 4H428-AA.
T40 chain: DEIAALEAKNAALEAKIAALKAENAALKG
Nature of the assay: two-hybrid library CCmax. The settings on record: mean of both orientations.

For assay [41], the target named is T41, 4H2248-AA.
T41 chain: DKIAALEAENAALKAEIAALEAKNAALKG
Put plainly: two-hybrid library CCmax. The settings on record: mean of both orientations.

Assay [42] deals with T42, 4H3066-AA.
T42 chain: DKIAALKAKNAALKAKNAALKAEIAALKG
Put plainly: two-hybrid library CCmax. The settings on record: mean of both orientations.

In assay [43] the target is T43, 4H189-AA.
T43 chain: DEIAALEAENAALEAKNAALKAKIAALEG
Put plainly: two-hybrid library CCmax. Conditions: mean of both orientations.

In assay [44] the target is T44, 4H3417-AA.
T44 chain: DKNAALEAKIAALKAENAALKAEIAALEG
Put plainly: two-hybrid library CCmax. Conditions: mean of both orientations.

Assay [45] has as its target T45, 4H3029-AA.
T45 chain: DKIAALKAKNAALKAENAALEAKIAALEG
Nature of the assay: two-hybrid library CCmax. Conditions: mean of both orientations.

Assay [46] deals with T46, 4H1146-AA.
T46 chain: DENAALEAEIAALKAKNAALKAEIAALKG
Put plainly: two-hybrid library CCmax.

For assay [47], the target named is T47, 4H497-AA.
T47 chain: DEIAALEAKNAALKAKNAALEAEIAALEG
Nature of the assay: two-hybrid library CCmax. Conditions: mean of both orientations.

Assay [48] has as its target T48, 4H391-AA.
T48 chain: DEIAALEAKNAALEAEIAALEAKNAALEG
Nature of the assay: two-hybrid library CCmax. Conditions: mean of both orientations.

Assay [49] has as its target T49, 4H2948-AA.
T49 chain: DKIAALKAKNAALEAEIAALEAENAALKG
Put plainly: two-hybrid library CCmax. Conditions: mean of both orientations.

In assay [50] the target is T50, 4H478-AA.
T50 chain: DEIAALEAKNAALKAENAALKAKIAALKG
Put plainly: two-hybrid library CCmax. The settings on record: mean of both orientations.

In assay [51] the target is T51, 4H1854-AA.
T51 chain: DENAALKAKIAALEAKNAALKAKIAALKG
Nature of the assay: two-hybrid library CCmax. Conditions: mean of both orientations.

The target of assay [52] is T52, 4H656-AA.
T52 chain: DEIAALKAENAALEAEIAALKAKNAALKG
Put plainly: two-hybrid library CCmax. Conditions: mean of both orientations.

Assay [53] has as its target T53, 4H3666-AA.
T53 chain: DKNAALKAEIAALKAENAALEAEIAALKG
Put plainly: two-hybrid library CCmax. The settings on record: mean of both orientations.

Assay [54] has as its target T54, 4H3446-AA.
T54 chain: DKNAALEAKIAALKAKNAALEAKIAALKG
Put plainly: two-hybrid library CCmax.

Assay [55] deals with T55, 4H2991-AA.
T55 chain: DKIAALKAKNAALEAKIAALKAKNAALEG
Nature of the assay: two-hybrid library CCmax. The settings on record: mean of both orientations.

The target in assay [56] is T56, 4H971-AA.
T56 chain: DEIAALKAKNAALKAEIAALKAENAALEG
Nature of the assay: two-hybrid library CCmax. Conditions: mean of both orientations.

The target in assay [57] is T57, 4H3591-AA.
T57 chain: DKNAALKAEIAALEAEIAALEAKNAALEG
Nature of the assay: two-hybrid library CCmax. Conditions: mean of both orientations.

For the molecule DKIQQLEQENQELEQKIQELKWKNQELEQ [4H2223-bN], the interaction score in [1] was -0.0421; in assay [2], -0.362; in assay [3] it was -1.33; in [4], 0.483; in assay [5], -0.393; in assay [6], -0.775. Moreover, the interaction score is -0.691 in assay [7]; -0.943 in assay [8]; -0.818 in assay [9]; -1.55 in [10]; 0.654 in [11]; 1.04 in assay [12]. For the same molecule, the interaction score in [13] is -0.721; in [14], 0.0621; in assay [15], 0.539; in assay [16], -0.941; in [17] it was -2.14.

DKIAQLKEKNAALKEKNQQLKEKIQALKY [P2A]: the interaction score in [18] was -2.38; in assay [19] it was -1.21; in assay [20], -1.07; in [21], -0.481; in [22], -0.85; in assay [23], -1.63. Also, the results for the interaction score in assay [24] and in assay [25] were -0.59 and -1.27, respectively.

Take DENAALEAEIAALKAKNAALKAEIAALKG [4H1146-AA]: the interaction score in assay [26] is 0.627; in assay [27] it was -1.58; in assay [28], 0.0699; in assay [29], -0.198; in assay [30] it was -0.542; in [31] it was -1.69. In addition, the interaction score in assay [32] is -1.39; in assay [33] it was -1.56; in assay [34], 0.0108; in assay [35], -0.725; in assay [36], -1.65; in [37], -0.436. The interaction score in [38] was 2.05; in assay [39], -1.15; in assay [40] it was -0.861; in assay [41], -0.598; in assay [42], -1.53; in assay [43], -1.57. The interaction score was 0.618 in [44]; -1.14 in assay [45]; -0.0838 in assay [46]; -1.98 in [47]; -1.21 in [48]; -0.764 in assay [49]. The interaction score in assay [50] was -1.22; in assay [51] it was -0.715; in assay [52], 1.71; in assay [53] it was 2.01; in assay [54], 0.452; in [55], -0.0174. The interaction score in [56] is -0.562; in assay [57], -0.991.
